Test results as given in paper PMC4931181 (The EMBO Journal, 2016).
Numbering of substitutions follows the chain as printed. Several values for one entry are separate records, joined by “and”; a condition that tells them apart may be missing. Equal entries are not always repeated.

B1: Saccharomyces cerevisiae Nap1 full-length (residues 1–417) (natural protein)
chain: MSDPIRTKPKSSMQIDNAPTPHNTPASVLNPSYLKNGNPVRAQAQEQDDKIGTINEEDILANQPLLLQSIQDRLGSLVGQDSGYVGGLPKNVKEKLLSLKTLQSELFEVEKEFQVEMFELENKFLQKYKPIWEQRSRIISGQEQPKPEQIAKGQEIVESLNETELLVDEEEKAQNDSEEEQVKGIPSFWLTALENLPIVCDTITDRDAEVLEYLQDIGLEYLTDGRPGFKLLFRFDSSANPFFTNDILCKTYFYQKELGYSGDFIYDHAEGCEISWKDNAHNVTVDLEMRKQRNKTTKQVRTIEKITPIESFFNFFDPPKIQNEDQDEELEEDLEERLALDYSIGEQLKDKLIPRAVDWFTGAALEFEFEEDEEEADEDEDEEEDDDHGLEDDDGESAEEQDDFAGRPEQAPECKQS
B2: Saccharomyces cerevisiae Nap1 core domain (residues 75–365) (domain or fragment)
chain: GSLVGQDSGYVGGLPKNVKEKLLSLKTLQSELFEVEKEFQVEMFELENKFLQKYKPIWEQRSRIISGQEQPKPEQIAKGQEIVESLNETELLVDEEEKAQNDSEEEQVKGIPSFWLTALENLPIVCDTITDRDAEVLEYLQDIGLEYLTDGRPGFKLLFRFDSSANPFFTNDILCKTYFYQKELGYSGDFIYDHAEGCEISWKDNAHNVTVDLEMRKQRNKTTKQVRTIEKITPIESFFNFFDPPKIQNEDQDEELEEDLEERLALDYSIGEQLKDKLIPRAVDWFTGAAL
B3: yNap1cΔ (core 75–365 with in-frame deletion of the β5–β6 region, Δ284–308) (domain or fragment)
chain: GSLVGQDSGYVGGLPKNVKEKLLSLKTLQSELFEVEKEFQVEMFELENKFLQKYKPIWEQRSRIISGQEQPKPEQIAKGQEIVESLNETELLVDEEEKAQNDSEEEQVKGIPSFWLTALENLPIVCDTITDRDAEVLEYLQDIGLEYLTDGRPGFKLLFRFDSSANPFFTNDILCKTYFYQKELGYSGDFIYDHAEGCEISWKDNAHNVIESFFNFFDPPKIQNEDQDEELEEDLEERLALDYSIGEQLKDKLIPRAVDWFTGAAL
B4: yNap1cΔ_G225D (domain or fragment)
chain: B3 chain with G151D

Legend:
native MS = biological target: the molecule itself; experiment: native MS
[1] = biological target: Xenopus laevis histone H2B (28–126) (Xenopus laevis, UniProt P02281 28-126); experiment: crystal structure

Binder	stoichiometry N (native MS)	binding result [1]	binding result (native MS)
B1	2 and 4 and 6		
B2	2 and 4 and 6	binds	
B3			binds
B4	2		
